Assay results published in doi:10.1101/2025.10.15.682645 (bioRxiv, 2025).
Residue numbers refer to the chain shown, from its start.

B1: GFP-GST-Rad54 (enzyme, Saccharomyces cerevisiae, UniProt P32863 1-898, looked up)
chain: MARRRLPDRPPNGIGAGERPRLVPRPINVQDSVNRLTKPFRVPYKNTHIPPAAGRIATGSDNIVGGRSLRKRSATVCYSGLDINADEAEYNSQDISFSQLTKRRKDALSAQRLAKDPTRLSHIQYTLRRSFTVPIKGYVQRHSLPLTLGMKKKITPEPRPLHDPTDEFAIVLYDPSVDGEMIVHDTSMDNKEEESKKMIKSTQEKDNINKEKNSQEERPTQRIGRHPALMTNGVRNKPLRELLGDSENSAENKKKFASVPVVIDPKLAKILRPHQVEGVRFLYRCVTGLVMKDYLEAEAFNTSSEDPLKSDEKALTESQKTEQNNRGAYGCIMADEMGLGKTLQCIALMWTLLRQGPQGKRLIDKCIIVCPSSLVNNWANELIKWLGPNTLTPLAVDGKKSSMGGGNTTVSQAIHAWAQAQGRNIVKPVLIISYETLRRNVDQLKNCNVGLMLADEGHRLKNGDSLTFTALDSISCPRRVILSGTPIQNDLSEYFALLSFSNPGLLGSRAEFRKNFENPILRGRDADATDKEITKGEAQLQKLSTIVSKFIIRRTNDILAKYLPCKYEHVIFVNLKPLQNELYNKLIKSREVKKVVKGVGGSQPLRAIGILKKLCNHPNLLNFEDEFDDEDDLELPDDYNMPGSKARDVQTKYSAKFSILERFLHKIKTESDDKIVLISNYTQTLDLIEKMCRYKHYSAVRLDGTMSINKRQKLVDRFNDPEGQEFIFLLSSKAGGCGINLIGANRLILMDPDWNPAADQQALARVWRDGQKKDCFIYRFISTGTIEEKIFQRQSMKMSLSSCVVDAKEDVERLFSSDNLRQLFQKNENTICETHETYHCKRCNAQGKQLKRAPAMLYGDATTWNHLNHDALEKTNDHLLKNEHHYNDISFAFQYISH
B2: GFP-GST-Rad54 S816AS817A (enzyme, Saccharomyces cerevisiae, UniProt P32863 1-898, looked up)
chain: B1 chain with S816A, S817A
B3: Rad51 (natural protein, UniProt P25454 1-400, looked up)
chain: MSQVQEQHISESQLQYGNGSLMSTVPADLSQSVVDGNGNGSSEDIEATNGSGDGGGLQEQAEAQGEMEDEAYDEAALGSFVPIEKLQVNGITMADVKKLRESGLHTAEAVAYAPRKDLLEIKGISEAKADKLLNEAARLVPMGFVTAADFHMRRSELICLTTGSKNLDTLLGGGVETGSITELFGEFRTGKSQLCHTLAVTCQIPLDIGGGEGKCLYIDTEGTFRPVRLVSIAQRFGLDPDDALNNVAYARAYNADHQLRLLDAAAQMMSESRFSLIVVDSVMALYRTDFSGRGELSARQMHLAKFMRALQRLADQFGVAVVVTNQVVAQVDGGMAFNPDPKKPIGGNIMAHSSTTRLGFKKGKGCQRLCKVVDSPCLPEAECVFAIYEDGVGDPREEDE

What was measured:
Experiment in all cases: single-molecule DNA curtains
Rad51 = target: B3
GFP-GST-Rad54 = target: B1
GFP-GST-Rad54 S816AS817A = target: B2
GFP-GST-Rad54 S816DS817D = target: T1, GFP-GST-Rad54 S816DS817D (Saccharomyces cerevisiae, UniProt P32863 1-898, S816D | S817D)
T1 sequence (looked up): B1 chain with S816D, S817D

| Binder | fold change of Rad54 molecules per PSC, flow off against constant flow (Rad51) [fold] | binding result (GFP-GST-Rad54) | binding result (GFP-GST-Rad54 S816AS817A) | binding result (GFP-GST-Rad54 S816DS817D) |
| --- | --- | --- | --- | --- |
| B1 | 2 | – | – | – |
| B2 | 2 | – | – | – |
| B3 | – | binds | binds | binds |
